Test results from patent publication US20230147657A1 (INSERM INSTITUT NATIONAL DE LA SANT ET DE LA RECHERCHE M …, published 2023).
Read-outs that look alike come from different tables or passages of the source. Blank lines part the entries; values can stand above or below the binder they belong to.

Key:
human CD45RC [1] = target: T1, human CD45RC (human, UniProt P08575 26-1306); assay: flow cytometry on T cells of human PBMC; biotin anti-human IgG + streptavidin PerCP-Cy5.5
T1 construct: Native protein on human blood leukocytes / PBMC / T cells of healthy volunteers; also called hCD45RC
T1 sequence: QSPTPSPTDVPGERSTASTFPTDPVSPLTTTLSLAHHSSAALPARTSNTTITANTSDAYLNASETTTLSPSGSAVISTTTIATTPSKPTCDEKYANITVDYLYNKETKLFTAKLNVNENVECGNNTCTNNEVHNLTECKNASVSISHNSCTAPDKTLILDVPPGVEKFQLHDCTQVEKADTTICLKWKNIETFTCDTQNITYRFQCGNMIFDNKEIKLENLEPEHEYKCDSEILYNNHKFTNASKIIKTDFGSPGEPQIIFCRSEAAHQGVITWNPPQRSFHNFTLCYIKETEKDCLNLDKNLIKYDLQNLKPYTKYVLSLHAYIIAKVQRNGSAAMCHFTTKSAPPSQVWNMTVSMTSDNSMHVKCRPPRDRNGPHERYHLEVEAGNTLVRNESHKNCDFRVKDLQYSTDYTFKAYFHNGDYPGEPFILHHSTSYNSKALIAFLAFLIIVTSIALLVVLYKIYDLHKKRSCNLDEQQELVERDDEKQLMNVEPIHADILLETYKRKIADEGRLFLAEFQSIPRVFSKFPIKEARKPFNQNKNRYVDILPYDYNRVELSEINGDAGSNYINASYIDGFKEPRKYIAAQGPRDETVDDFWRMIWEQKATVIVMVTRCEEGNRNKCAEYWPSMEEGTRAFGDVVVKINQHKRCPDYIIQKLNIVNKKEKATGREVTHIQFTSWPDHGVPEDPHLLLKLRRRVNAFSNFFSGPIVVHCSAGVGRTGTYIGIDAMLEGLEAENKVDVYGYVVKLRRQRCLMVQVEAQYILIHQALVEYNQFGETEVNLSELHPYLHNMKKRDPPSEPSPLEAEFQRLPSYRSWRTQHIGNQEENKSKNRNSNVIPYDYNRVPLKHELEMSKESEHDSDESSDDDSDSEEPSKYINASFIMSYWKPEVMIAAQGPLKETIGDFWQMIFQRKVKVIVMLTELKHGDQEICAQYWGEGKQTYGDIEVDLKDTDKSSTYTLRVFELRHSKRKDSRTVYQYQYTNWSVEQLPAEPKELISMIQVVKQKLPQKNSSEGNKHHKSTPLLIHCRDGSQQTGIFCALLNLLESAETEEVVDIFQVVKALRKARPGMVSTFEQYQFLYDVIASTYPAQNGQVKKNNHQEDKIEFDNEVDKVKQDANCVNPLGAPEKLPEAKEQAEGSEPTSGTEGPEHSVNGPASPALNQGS

human CD45RC [2] = target: T1, human CD45RC; assay: as above; remark: listed apart in the source

B1: Anti-45RC Variant A (antibody, human IgG1, kappa, V domains shown)
VH: QVQLVQSGAEVKKPGASVKVSCKASGYTFTNYYIGWVRQAPGQGLEWIGDIFPGGDYANSNEKFKGRVTLTADTSISTAYMELSRLRSDDTVVYYCVRRNFDYWGQGTLVTVSS
VL: DIQLTQSPSFLSASVGDRVTITCSASSSVSYMHWFQQKPGKAPKLWIYNTSNLPSGVPSRFSGSGSGTEYTLTISSLQPEDFATYYCQQRSSYPLTFGGGTKVEIKR
notes: also called humanized ABIS-45RC variant A
% of T cells in the CD45RC gate at 1 µg/mL (human CD45RC [1]): 58.2%
% of T cells in the CD45RC gate at 2 µg/mL (human CD45RC [1]): 60.2%

B3: Anti-45RC Variant B (antibody, human IgG1, kappa, V domains shown)
VH: B1 VH
VL: EIVLTQSPDFQSVTPKEKVTITCSASSSVSYMHWFQQKPDQSPKLWIYNTSNLPSGVPSRFSGSGSGTDYTLTINSLEAEDAATYYCQQRSSYPLTFGGGTKVEIKR
notes: also called humanized ABIS-45RC variant B
% of T cells in the CD45RC gate at 1 µg/mL (human CD45RC [1]): 43.9%
% of T cells in the CD45RC gate at 2 µg/mL (human CD45RC [1]): 32.7%

Continued, values first:

% of T cells in the CD45RC gate at 1 µg/mL (human CD45RC [2]): 49.7%
% of T cells in the CD45RC gate at 2 µg/mL (human CD45RC [2]): 48.9%
B2: Anti-45RC Variant I (antibody, human IgG1, kappa, V domains shown)
VH: QVQLVESGGGLVKPGGSLRLSCAASGYTFTNYYIGWIRQAPGKGLEWIGDIFPGGDYANSNEKVKGRFTLSADTAKNSAYLQMNSLRAEDTAVYYCVRRNFDYWGQGTLVTVSS
VL: B1 VL
notes: also called humanized ABIS-45RC variant I

% of T cells in the CD45RC gate at 1 µg/mL (human CD45RC [1]): 63.3%
% of T cells in the CD45RC gate at 2 µg/mL (human CD45RC [1]): 63.7%
B4: Anti-45RC Variant C (antibody, human IgG1, kappa, V domains shown)
VH: B1 VH
VL: EIVLTQSPATLSLSPGERATLSCSASSSVSYMHWFQQKPGQAPRLWIYNTSNLPSGIPARFSGSGSGTDYTLTISSLEPEDFAVYYCQQRSSYPLTFGGGTKVEIKR
notes: also called humanized ABIS-45RC variant C

% of T cells in the CD45RC gate at 1 µg/mL (human CD45RC [1]): 57.2%
% of T cells in the CD45RC gate at 2 µg/mL (human CD45RC [1]): 59.5%
B5: Anti-45RC Variant D (antibody, human IgG1, kappa, V domains shown)
VH: EVQLVQSGAEVKKPGESLKISCKASGYTFTNYYIGWVRQMPGKGLEWIGDIFPGGDYANSNEKFKGQVTLSADKSISTAYLQLSSLKASDTAMYYCVRRNFDYWGQGTLVTVSS
VL: B1 VL
notes: also called humanized ABIS-45RC variant D
